Measured values taken from US20170283458A1, “COLLAGEN-BINDING SYNTHETIC PEPTIDOGLYCANS FOR WOUND HEALING” (Symic Biomedical, Inc., priority 2009, published 2017).
Ends that are not written are not given here.

Columns and labels:
[1] = biological target: T1, collagen type III (Homo sapiens, UniProt P02461); assay: Viscoelastic characterization of collagen III containing gels; type: biochemical; conditions: 1.5 mg/mL collagen (90% collagen III); 1:1 and 5:1 molar ratios
T1 construct: purchased Millipore
T1 sequence (P02461 154-1221 limits assumed): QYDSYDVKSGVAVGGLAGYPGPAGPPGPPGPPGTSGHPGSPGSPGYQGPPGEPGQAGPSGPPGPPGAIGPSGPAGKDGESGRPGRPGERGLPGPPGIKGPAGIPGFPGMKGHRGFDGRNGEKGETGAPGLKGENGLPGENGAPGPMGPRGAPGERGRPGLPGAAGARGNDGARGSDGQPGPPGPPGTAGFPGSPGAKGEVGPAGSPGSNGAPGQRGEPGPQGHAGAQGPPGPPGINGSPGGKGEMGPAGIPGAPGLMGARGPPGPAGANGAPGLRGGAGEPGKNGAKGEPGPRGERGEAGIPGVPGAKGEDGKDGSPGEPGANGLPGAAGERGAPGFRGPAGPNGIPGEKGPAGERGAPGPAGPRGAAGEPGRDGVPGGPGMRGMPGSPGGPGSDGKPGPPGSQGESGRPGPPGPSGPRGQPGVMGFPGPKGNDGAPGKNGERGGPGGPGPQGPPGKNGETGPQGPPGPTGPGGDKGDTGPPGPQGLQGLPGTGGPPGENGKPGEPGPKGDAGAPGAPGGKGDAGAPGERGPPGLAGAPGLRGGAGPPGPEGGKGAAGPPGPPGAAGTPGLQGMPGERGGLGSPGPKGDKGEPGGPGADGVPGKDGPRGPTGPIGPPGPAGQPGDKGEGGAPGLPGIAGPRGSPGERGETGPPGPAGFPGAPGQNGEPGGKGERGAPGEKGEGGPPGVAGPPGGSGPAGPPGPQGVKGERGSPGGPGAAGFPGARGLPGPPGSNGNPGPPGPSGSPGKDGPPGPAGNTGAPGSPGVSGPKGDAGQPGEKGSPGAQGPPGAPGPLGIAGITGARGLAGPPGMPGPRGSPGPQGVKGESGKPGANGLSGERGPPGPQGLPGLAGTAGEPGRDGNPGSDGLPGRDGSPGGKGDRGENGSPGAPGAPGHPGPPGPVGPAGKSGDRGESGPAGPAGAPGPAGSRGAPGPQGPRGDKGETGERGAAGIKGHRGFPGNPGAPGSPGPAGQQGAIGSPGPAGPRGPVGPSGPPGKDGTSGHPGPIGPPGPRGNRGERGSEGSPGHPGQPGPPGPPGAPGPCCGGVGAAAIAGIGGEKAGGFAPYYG
Experimental: Gels containing type III collagen were prepared as in EXAMPLE 16 with the following modifications: treated and untreated gel solutions were prepared using a collagen concentration of 1.5 mg/mL (90% collagen III (Millipore), 10% collagen I), 200 μL samples were pipetted onto 20 mm diameter wettable surfaces of hydrophobic printed slides. These solutions were allowed to gel at 37° C. for 24 hours. Gels were formed from collagen alone, collagen treated with dermatan sulfate (1:1 and 5:1 molar ratio), and collagen treated with the collagen III-binding peptides alone (GSIT and KELN, 5:1 molar ratio) served as controls.

[2] = biological target: T2, collagen III (Homo sapiens, UniProt P02461); assay: Cryo-SEM measurements on collagen III, void space; type: biochemical; conditions: 1 mg/mL collagen (90% collagen III), 1:1 collagen:peptidoglycan
T2 construct: purchased Millipore
T2 sequence (P02461 154-1221 limits assumed): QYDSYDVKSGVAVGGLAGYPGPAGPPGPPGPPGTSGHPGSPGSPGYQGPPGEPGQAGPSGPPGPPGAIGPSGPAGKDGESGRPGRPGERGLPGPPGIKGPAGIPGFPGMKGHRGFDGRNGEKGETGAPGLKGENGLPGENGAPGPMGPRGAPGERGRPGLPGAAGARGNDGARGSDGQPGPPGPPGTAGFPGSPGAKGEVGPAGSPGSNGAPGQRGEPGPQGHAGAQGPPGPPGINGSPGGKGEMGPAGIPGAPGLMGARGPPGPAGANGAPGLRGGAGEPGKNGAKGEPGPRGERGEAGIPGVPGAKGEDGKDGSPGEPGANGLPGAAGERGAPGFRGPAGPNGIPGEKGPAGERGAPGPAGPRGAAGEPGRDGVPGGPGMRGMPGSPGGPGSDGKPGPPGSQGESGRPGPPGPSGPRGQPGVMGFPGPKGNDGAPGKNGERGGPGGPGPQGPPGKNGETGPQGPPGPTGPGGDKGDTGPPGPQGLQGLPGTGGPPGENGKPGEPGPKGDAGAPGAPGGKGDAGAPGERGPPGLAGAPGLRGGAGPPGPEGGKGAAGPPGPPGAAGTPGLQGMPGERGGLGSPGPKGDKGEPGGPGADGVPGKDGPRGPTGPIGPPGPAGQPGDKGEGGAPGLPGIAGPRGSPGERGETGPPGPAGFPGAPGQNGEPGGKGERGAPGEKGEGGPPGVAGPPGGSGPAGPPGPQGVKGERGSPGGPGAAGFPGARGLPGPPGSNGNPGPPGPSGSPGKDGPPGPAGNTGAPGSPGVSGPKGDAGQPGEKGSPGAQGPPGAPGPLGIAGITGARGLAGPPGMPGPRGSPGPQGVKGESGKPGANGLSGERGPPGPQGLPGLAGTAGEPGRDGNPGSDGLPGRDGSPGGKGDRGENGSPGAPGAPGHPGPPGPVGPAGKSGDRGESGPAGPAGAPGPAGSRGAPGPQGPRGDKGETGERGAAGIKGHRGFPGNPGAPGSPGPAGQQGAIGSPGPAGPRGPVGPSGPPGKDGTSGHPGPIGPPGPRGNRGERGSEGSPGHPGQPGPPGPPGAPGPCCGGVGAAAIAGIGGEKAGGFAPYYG
Experimental: Gels for cryo-SEM were formed, as in EXAMPLE 16, directly on the SEM stage and incubated at 37° C. overnight with the following modifications. The collagen concentration was 1 mg/mL (90% collagen III, 10% collagen I). The collagen:DS ratio was 1:1 and the collagen:peptidoglycan ratio was 1:1. The images were recorded as in EXAMPLE 21. The ratio of void volume to fibril volume was measured using a variation of the method in EXAMPLE 21.

[3] = biological target: T3, collagen (Bos taurus, UniProt P02453+P02465); assay: Fibrillogenesis turbidity assay (absorbance at 313 nm); type: biochemical; conditions: 1:1 collagen:additive molar ratio, vs collagen alone
T3 construct: purchased Inamed, Freemont, Calif; Nutragen
Experimental: (§1) Gels were made with Nutragen collagen (Inamed, Freemont, Calif.) at a final concentration of 4 mg/mL collagen. Nutragen stock is 6.4 mg/mL in 10 mM HCl. Gel preparation was performed on ice, and fresh samples were made before each test. The collagen solution was adjusted to physiologic pH and salt concentration, by adding appropriate volumes of 10×PBS (phosphate buffered saline), 1×PBS, and 1M NaOH. For most experiments, samples of DS, decorin, DS-SILY, or DS-Dc13 were added at a 10:1 collagen:treatment molar ratio by a final 1×PBS addition (equal volumes across treatments) in which the test samples were dissolved at appropriate concentrations. In this way, samples are constantly kept at pH 7.4 and physiologic salt concentration. Collagen-alone samples received a 1×PBS addition with no sample dissolved. Fibrillogenesis will be induced by incubating neutralized collagen solutions at 37° C. overnight in a humidified chamber to avoid dehydration. Gel solutions with collagen:treatment molar ratios of other than 10:1 were prepared similarly.
Collagen fibrillogenesis was monitored by measuring turbidity related absorbance at 313 nm providing information on rate of fibrillogenesis and fibril diameter. Gel solutions were prepared as described in EXAMPLE 16 (4 mg/mL collagen, 10:1 collagen:treatment, unless otherwise indicated) and 50 uL/well were added at 4° C. to a 384-well plate. The plate was kept at 4° C. for 4 hours before initiating fibril formation. A SpectraMax M5 at 37° C. was used to measure absorbance at 313 nm at 30 s intervals for 6 hours.
A fibrillogenesis assay as described for DS-SILY, EXAMPLE 19, performed with the conjugate DS-Dc13.

[4] = system: Human aortic smooth muscle cells; assay: Collagen remodeling: hydroxyproline content in medium of cell-seeded collagen gels; type: cell-based; conditions: vs collagen alone; cultures up to 30 days
Experimental: Following a method by Grassl, et al. (Grassl, et al., Journal of Biomedical Materials Research 2002, 60, (4), 607-612), which is herein incorporated in its entirety, collagen gels with or without synthetic PG mimics were formed as described in EXAMPLE 16. Human aortic smooth muscle cells (Cascade Biologics, Portland, Oreg.) were seeded within collagen gels by adding 4×10^6 cells/mL to the neutralized collagen solution prior to incubation. The cell-collagen solutions were pipetted into an 8-well Lab-Tek chamber slide and incubated in a humidified 37° C. and 5% CO2 incubator. After gelation, the cell-collagen gels will be covered with 1 mL Medium 231 as prescribed by Cascade. Every 3-4 days, the medium was removed from the samples and the hydroxyproline content measured by a standard hydroxyproline assay (Reddy, 1996).
To measure degraded collagen in the supernatant medium, the sample was lyophilized, the sample hydrolyzed in 2M NaOH at 120° C. for 20 min. After cooling, free hydroxyproline was oxidized by adding chloramine-T (Sigma) and reacting for 25 min at room temperature. Ehrlich's aldehyde reagent (Sigma) was added and allowed to react for 20 min at 65° C. and followed by reading the absorbance at 550 nm on an M-5 spectrophotometer (Molecular Devices). […] Cultures were incubated for up to 30 days and three samples of each treatment measured. […]

[5] = system: Human dermal fibroblasts; assay: TGF-β1 production by human dermal fibroblasts (ELISA); type: cell-based; conditions: 1.4 μM treatment, 48 hours
Experimental: Human dermal fibroblasts (Cascade Biologics) were seeded onto 96-well tissue culture polystyrene plates at a seeding density of 1.83×10^3 cells/well. Cells adhered overnight and cell medium was aspirated. 100 μL/well of cell medium containing a final concentration of 1.4 μM treatment delivered from a concentrated solution of treatment in 1×PBS was added to the cells. After 48 hours, cell medium was removed and frozen at −80 C until further testing. TGF-β1 was measured by ELISA using a kit and protocol from R&D Systems.

[6] = biological target: T4, collagen I (Bos taurus, UniProt P02453+P02465); assay: Cryo-SEM measurements on collagen I, fibril diameter; type: biochemical; conditions: 4 mg/mL collagen, 10:1 collagen:treatment, cryo-SEM 20,000×
T4 construct: purchased Inamed, Freemont, Calif; Nutragen
Experimental: as §1
Gels for cryo-SEM were formed, as in EXAMPLE 16, directly on the SEM stage and incubated at 37° C. overnight. The stages were then secured in a cryo-holder and plunged into liquid nitrogen slush. Samples were then transferred to a Gatan Alto 2500 pre-chamber cooled to −170° C. under vacuum. A free-break surface was created with a cooled scalpel, and each sample evaporated under sublimation conditions for 20 min. The sample was coated by platinum sputter coating for 120 s. Samples were transferred to the cryo-stage at −130° C. and regions with similar orientation were imaged for comparison across treatments. Analysis of the images was performed to determine the fibril diameter distribution, presented in histograms adjacent the corresponding image in FIG. 14, and average fibril diameter, FIG. 17 an 18;. Fibril diameter was calculated using ImageJ software (NIH) measuring individual fibrils by hand (drawing a line across fibrils and measuring its length after properly setting the scale). At least 45 independent fibril measurement were recorded for average fibril diameter calculations.

[7] = system: Human coronary artery smooth muscle cells (HCA SMC); assay: Gel compaction by smooth muscle cells in collagen gels; type: cell-based; conditions: Days 3 and 5
Experimental: Human coronary artery smooth muscle cells (HCA SMC) (Cascade Biologics) were cultured in growth medium (Medium 231 supplemented with smooth muscle growth factor). Cells from passage 3 were used for all experiments. Differentiation medium (Medium 231 supplemented with 1% FBS and 1× pen/strep) was used for all experiments unless otherwise noted.
Collagen gels were prepared with each additive as described with the exception that the 1×PBS example addition was omitted to accommodate the addition of cells in media. After incubating on ice for 30 min, HCA SMCs in differentiation medium were added to the gel solutions to a final concentration of 1×10^6 cells/mL. Gels were formed in quadruplicate in 48-well non-tissue culture treated plates (Costar) for 6 hrs before adding 500 μL/well differentiation medium. Gels were freed from the well edges after 24 hrs. Medium was changed every 2-3 days and images for compaction were taken at the same time points using a Gel Doc System (Bio-Rad). The cross-sectional area of circular gels correlating to degree of compaction was determined using ImageJ software (NIH). Gels containing no cells were used as a negative control and cells in collagen gels absent additive were used as a positive control. […] By day 10 all gels had compacted to approximately 10% of the original gel area, and differences between additives were small.

T3 sequence (P02453 162-1217 limits assumed): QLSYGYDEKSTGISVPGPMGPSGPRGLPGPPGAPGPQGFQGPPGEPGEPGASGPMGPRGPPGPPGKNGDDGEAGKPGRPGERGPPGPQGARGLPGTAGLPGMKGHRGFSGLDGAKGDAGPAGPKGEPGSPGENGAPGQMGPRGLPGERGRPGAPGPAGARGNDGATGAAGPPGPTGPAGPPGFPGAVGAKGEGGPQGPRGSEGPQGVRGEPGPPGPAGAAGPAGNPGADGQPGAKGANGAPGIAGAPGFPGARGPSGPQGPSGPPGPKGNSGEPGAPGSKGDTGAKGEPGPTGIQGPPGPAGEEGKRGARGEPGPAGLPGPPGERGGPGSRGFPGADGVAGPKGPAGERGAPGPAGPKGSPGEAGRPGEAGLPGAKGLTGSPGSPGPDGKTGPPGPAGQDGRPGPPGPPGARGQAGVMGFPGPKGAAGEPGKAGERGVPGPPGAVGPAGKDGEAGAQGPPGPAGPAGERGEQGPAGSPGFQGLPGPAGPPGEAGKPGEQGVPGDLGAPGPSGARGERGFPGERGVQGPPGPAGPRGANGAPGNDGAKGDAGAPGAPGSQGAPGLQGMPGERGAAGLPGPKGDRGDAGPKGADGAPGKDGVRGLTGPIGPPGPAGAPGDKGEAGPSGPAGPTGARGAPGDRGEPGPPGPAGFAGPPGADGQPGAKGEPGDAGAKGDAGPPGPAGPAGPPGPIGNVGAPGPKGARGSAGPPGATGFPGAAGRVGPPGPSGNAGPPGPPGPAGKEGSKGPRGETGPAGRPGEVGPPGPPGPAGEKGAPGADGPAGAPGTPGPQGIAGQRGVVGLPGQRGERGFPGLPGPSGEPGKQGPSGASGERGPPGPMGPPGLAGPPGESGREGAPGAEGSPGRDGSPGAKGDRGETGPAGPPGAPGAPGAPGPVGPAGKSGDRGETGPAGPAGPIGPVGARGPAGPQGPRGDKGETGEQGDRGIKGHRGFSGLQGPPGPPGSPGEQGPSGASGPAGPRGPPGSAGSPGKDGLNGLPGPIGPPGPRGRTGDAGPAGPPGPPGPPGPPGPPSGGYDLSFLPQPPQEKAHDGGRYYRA
T3 sequence (P02465 80-1117 limits assumed): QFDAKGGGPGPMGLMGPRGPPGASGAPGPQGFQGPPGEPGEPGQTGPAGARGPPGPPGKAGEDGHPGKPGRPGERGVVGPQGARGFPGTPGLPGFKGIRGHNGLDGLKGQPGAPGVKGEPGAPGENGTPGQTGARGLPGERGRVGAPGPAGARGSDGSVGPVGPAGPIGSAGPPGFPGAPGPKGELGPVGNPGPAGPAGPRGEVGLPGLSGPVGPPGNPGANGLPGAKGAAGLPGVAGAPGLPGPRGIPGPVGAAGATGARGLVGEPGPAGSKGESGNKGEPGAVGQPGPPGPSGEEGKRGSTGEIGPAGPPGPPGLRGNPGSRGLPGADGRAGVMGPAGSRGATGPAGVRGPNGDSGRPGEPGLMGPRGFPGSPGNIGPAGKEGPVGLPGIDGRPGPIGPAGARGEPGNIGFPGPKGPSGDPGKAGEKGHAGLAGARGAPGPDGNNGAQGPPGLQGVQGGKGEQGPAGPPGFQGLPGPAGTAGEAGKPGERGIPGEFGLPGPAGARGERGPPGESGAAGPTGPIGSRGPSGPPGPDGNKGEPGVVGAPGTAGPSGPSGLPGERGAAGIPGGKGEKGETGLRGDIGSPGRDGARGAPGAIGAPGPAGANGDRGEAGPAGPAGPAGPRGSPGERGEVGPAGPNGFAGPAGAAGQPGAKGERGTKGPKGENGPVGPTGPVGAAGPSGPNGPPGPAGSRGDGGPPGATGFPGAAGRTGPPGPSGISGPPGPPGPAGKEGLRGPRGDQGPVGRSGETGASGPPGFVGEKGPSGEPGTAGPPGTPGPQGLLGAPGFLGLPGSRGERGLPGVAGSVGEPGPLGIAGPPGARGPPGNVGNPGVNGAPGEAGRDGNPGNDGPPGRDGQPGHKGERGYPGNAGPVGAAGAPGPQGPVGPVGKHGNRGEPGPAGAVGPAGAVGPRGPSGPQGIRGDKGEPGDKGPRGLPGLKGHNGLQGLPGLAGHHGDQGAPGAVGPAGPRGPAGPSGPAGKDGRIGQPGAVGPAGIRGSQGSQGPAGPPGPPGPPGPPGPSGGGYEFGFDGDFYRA
T4 sequence (P02453 162-1217 limits assumed): as the sequence (P02453 162-1217 limits assumed) above
T4 sequence (P02465 80-1117 limits assumed): as the sequence (P02465 80-1117 limits assumed) above

DS-GSIT: dermatan sulfate conjugated to GSIT peptide GSITTIDVPWNVGC (also: dermatan sulfate conjugate, site not given here)
viscoelastic properties of gels formed with collagen type III [1]: can influence the viscoelastic properties of gels formed with collagen type III | void space [2]: decrease void space (increase fibril diameter and branching)

DS-KELN: dermatan sulfate conjugated to KELN peptide KELNLVYTGC (also: dermatan sulfate conjugate, site not given here)
viscoelastic properties of gels formed with collagen type III [1]: can influence the viscoelastic properties of gels formed with collagen type III | void space [2]: decrease void space (increase fibril diameter and branching)

SYIRIADTNITGC [Dc13]
effect on fibrillogenesis [3]: little effect on fibrillogenesis compared to collagen alone | collagen degradation measured by hydroxyproline content in cell medium [4]: greater collagen degradation compared to collagen alone

B1: decorin: proteoglycan known to influence collagen fibrillogenesis (protein, UniProt P07585 31-359, looked up)
Decorin: DEASGIGPEVPDDRDFEPSLGPVCPFRCQCHLRVVQCSDLGLDKVPKDLPPDTTLLDLQNNKITEIKDGDFKNLKNLHALILVNNKISKVSPGAFTPLVKLERLYLSKNQLKELPEKMPKTLQELRAHENEITKVRKVTFNGLNQMIVIELGTNPLKSSGIENGAFQGMKKLSYIRIADTNITSIPQGLPPSLTELHLDGNKISRVDAASLKGLNNLAKLGLSFNSISAVDNGSLANTPHLRELHLDNNKLTRVPGGLAEHKYIQVVYLHNNNISVVGSSDFCPPGHNTKKASYSGVSLFSNPVQYWEIQPSTFRCVYVRSAIQLGNYK
TGF-β1 in cell medium [5]: significantly decreased TGF-β1 | average fibril diameter [6]: significant decrease in average fibril diameter | gel compaction at early time points [7]: significantly compacted more than gels made of collagen alone or collagen with dermatan sulfate
